Results as given in article doi:10.1101/2024.03.05.583490.

Target: IR-Rluc (insulin receptor fused to Rluc) (UniProt P06213)
Assay: FRET or BRET

- fold change in BRET50 against the wild type: 2 fold
Substance: IGF1R-YPET F450A (from UniProt P08069 31-1367) (receptor)
